Here are results for 2 molecules from publication PMC6197697, “Rice transcription factor OsMADS25 modulates root growth and confers salinity tolerance via the ABA–mediated regulatory pathway and ROS scavenging”.

Data set [1] addresses T1, His-OsMADS25 (Oryza sativa, UniProt Q84NC5 1-227). Briefly: EMSA; 5 mM Mg2+; competition stated to confirm specificity; 10 mM Tris pH 7.5, 50 mM KCl, 1 mM DTT, 2.5% glycerol, 5 mM MgCl2, 0.05% NP-40, 50 ng/ul poly(dI-dC), 30 ng protein, 400 fmol probe in 20 ul, 25 C 20 min (final values calculated from stocks). Particulars: protein: recombinant; tags: His (pET32a fusion); chain copies: 2; label: biotin 3' end; blunt.

Data set [2] addresses T1, His-OsMADS25. Nature of the data set: EMSA; 5 mM Mg2+; 10 mM Tris pH 7.5, 50 mM KCl, 1 mM DTT, 2.5% glycerol, 5 mM MgCl2, 0.05% NP-40, 50 ng/ul poly(dI-dC), 30 ng protein, 400 fmol probe in 20 ul, 25 C 20 min (final values calculated from stocks). Particulars: protein: recombinant; tags: His (pET32a fusion); chain copies: 2; label: biotin 3' end; blunt.

T1 sequence (Q84NC5 whole entry, the tested form may be a part): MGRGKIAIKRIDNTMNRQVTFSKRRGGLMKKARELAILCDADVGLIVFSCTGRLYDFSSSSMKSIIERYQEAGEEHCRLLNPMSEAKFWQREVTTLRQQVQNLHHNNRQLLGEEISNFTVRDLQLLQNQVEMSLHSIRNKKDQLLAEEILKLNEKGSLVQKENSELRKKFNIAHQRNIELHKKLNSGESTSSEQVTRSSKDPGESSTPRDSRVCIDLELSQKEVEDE

B1: OsP5CR P2 probe (dsDNA)
DNA 1: CGACGAATCCATTCATATATTTGTAGGGGCAGCGG
DNA 2: CCGCTGCCCCTACAAATATATGAATGGATTCGTCG
Take B1: in data set [1], the binding result is reported as “binds”.

B2: OsP5CR P1 probe (dsDNA)
DNA 1: CAGAGGGCATTCTCCCTAATAAGGCAGATACCTCCG
DNA 2: CGGAGGTATCTGCCTTATTAGGGAGAATGCCCTCTG
In the case of B2, the binding result in data set [2] was “no binding”.
